Results taken from article PMC3587332 (FEBS letters, 2012).
Values belong to the binder of their own block, whether it stands above or below them.

Legend:
Pap1-GST = Pap1-GST (S. cerevisiae, UniProt P29468 1-568); assay: pull-down
ΔN-Pap1-GST = ΔN-Pap1-GST (S. cerevisiae, UniProt P29468 19-568); assay: pull-down
ΔN-Pap1-His6 = ΔN-Pap1-His6 (S. cerevisiae, UniProt P29468 19-568); assay: co-IP
Pap1-His6 [1] = target: T1, Pap1-His6 (S. cerevisiae, UniProt P29468 1-568); assay: co-IP
Pap1-His6 [2] = target: T1, Pap1-His6; assay: pull-down

Sequence of Pap1-GST (P29468 whole entry): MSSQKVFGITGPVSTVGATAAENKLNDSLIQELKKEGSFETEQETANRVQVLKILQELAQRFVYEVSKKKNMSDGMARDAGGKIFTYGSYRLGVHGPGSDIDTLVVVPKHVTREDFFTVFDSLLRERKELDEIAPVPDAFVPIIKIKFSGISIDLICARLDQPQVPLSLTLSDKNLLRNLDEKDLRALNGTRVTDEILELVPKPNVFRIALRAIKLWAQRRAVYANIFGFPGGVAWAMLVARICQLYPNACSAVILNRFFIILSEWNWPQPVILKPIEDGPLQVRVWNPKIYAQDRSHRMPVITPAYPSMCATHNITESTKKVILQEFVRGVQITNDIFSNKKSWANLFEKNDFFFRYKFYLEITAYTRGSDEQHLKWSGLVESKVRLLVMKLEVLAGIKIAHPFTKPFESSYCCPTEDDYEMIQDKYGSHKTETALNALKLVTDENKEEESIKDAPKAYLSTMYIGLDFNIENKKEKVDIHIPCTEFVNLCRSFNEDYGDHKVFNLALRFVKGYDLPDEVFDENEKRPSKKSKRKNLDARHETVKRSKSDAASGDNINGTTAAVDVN
T1 sequence (P29468 whole entry): as above
Sequence of ΔN-Pap1-His6 (P29468 19-568, stated change not applied): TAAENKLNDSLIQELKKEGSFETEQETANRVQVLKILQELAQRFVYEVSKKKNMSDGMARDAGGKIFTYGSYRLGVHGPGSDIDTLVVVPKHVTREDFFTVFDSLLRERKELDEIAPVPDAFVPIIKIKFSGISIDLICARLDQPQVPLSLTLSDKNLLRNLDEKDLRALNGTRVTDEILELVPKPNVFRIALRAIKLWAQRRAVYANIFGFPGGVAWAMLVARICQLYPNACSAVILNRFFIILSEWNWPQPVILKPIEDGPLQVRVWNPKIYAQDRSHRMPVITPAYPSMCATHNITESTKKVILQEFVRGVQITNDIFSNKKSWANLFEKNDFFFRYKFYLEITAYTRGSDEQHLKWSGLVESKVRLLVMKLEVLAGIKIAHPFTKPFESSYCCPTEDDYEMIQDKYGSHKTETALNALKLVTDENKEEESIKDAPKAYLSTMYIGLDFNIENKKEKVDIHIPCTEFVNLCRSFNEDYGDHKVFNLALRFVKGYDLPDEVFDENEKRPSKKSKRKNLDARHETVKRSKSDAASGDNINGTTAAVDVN
Sequence of ΔN-Pap1-GST (P29468 19-568, stated change not applied): as above

binding result (Pap1-GST): binds | binding result (ΔN-Pap1-GST): binds | binding result (ΔN-Pap1-His6): binds | binding result (Pap1-His6 [1]): binds
B1: Fip1(1–206) (domain or fragment, S. cerevisiae, UniProt P45976 1-206, looked up)
chain: MSSSEDEDDKFLYGSDSELALPSSKRSRDDEADAGASSNPDIVKRQKFDSPVEETPATARDDRSDEDIYSDSSDDDSDSDLEVIISLGPDPTRLDAKLLDSYSTAATSSSKDVISVATDVSNTITKTSDERLITEGEANQGVTATTVKATESDGNVPKAMTGSIDLDKEGIFDSVGITTIDPEVLKEKPWRQPGANLSDYFNYGFN

binding result (Pap1-GST): binds
B2: Sub1-V5-His6 (natural protein, S. cerevisiae, UniProt P54000 1-292, looked up)
chain: MSYYNRYRNKRRSDNGGGNLSNSNNNNGGMPSGLSASDAIFDLGKNKRVTVRQFRNINLIDIREYYLDSSTGEMKPGKKGISLTEDLYDELLKHRLNIDEALRRLGSKRPKTKMVRLLSDDEYEDDNNNDSTNNDKDKNGKDKNSPKKRREDKSKASNESHDLEPRSKKKKPAPPTLLPHEENIQNAEREANATLIIPGQAGRKQQEERKQKEKEEAEEAKAKAVAEQEKEAKAKEKIAEPEPEPVPTLQAKKEDIVSNINESKDANSSDEEFAQSLEAEMNKAEDDISEEE

binding result (Pap1-GST): binds
B3: Nab6-V5-His6 (the last 210 amino acids) (domain or fragment, S. cerevisiae, UniProt Q03735 925-1134, looked up)
chain: GGGETGTANNTGHENESELEAENENGNETGSFGGLGLAVASSDVKRATSDETDYEDIFNKSSGSSDSSSDVEVIMHSPSDPEYALKSQTLRSSSQTVINSKRPVKIEDEEEAVGMSQLNYRSSLRQAPPRAPSTLSYNHSKNNETPMQDIFTNGETANNRKKKRGSFARHRTIPGSDVMAQYLAQVQHSTFMYAANILGASAEDNTHPDE

binding result (Pap1-His6 [2]): binds
B4: GST-Pta1 (1–300) (domain or fragment, S. cerevisiae, UniProt Q01329 1-300, looked up)
chain: MSSAEMEQLLQAKTLAMHNNPTEMLPKVLETTASMYHNGNLSKLKLPLAKFFTQLVLDVVSMDSPIANTERPFIAAQYLPLLLAMAQSTADVLVYKNIVLIMCASYPLVLDLVAKTSNQEMFDQLCMLKKFVLSHWRTAYPLRATVDDETDVEQWLAQIDQNIGVKLATIKFISEVVLSQTKSPSGNEINSSTIPDNHPVLNKPALESEAKRLLDMLLNYLIEEQYMVSSVFIGIINSLSFVIKRRPQTTIRILSGLLRFNVDAKFPLEGKSDLNYKLSKRFVERAYKNFVQFGLKNQII
